According to paper PMC10924461, “Structure and ligand binding in the putative anti-microbial peptide transporter protein, YejA” (Microbiology, 2024):

Legend:
[1] = target: T1, YejA, periplasmic solute-binding protein of the YejABEF ABC transporter from E. coli (E. coli K12, UniProt P33913 20-604); assay: thermal shift assay (SYPRO orange); 0.5 mg ml^-1 (7.3 µM) YejA, 5x SYPRO orange, 25 µl, 25-96 °C in 1 °C/30 s steps; synthetic peptides added; a shift greater than 3 °C taken as significant; details: both partners purified
T1 construct: YejA, E. coli K12, residues 1-585 (Gln1-Glu585) of the mature protein, without the signal peptide; numbers count on: the mature protein; also called EcYejA; recombinant YejA; source: E. coli BL21 (DE3) with pBKA101, purified (HisTrap, HRV 3C cleavage, S200 SEC); not shown: His6, C-terminal, cleaved
T1 sequence (looked up): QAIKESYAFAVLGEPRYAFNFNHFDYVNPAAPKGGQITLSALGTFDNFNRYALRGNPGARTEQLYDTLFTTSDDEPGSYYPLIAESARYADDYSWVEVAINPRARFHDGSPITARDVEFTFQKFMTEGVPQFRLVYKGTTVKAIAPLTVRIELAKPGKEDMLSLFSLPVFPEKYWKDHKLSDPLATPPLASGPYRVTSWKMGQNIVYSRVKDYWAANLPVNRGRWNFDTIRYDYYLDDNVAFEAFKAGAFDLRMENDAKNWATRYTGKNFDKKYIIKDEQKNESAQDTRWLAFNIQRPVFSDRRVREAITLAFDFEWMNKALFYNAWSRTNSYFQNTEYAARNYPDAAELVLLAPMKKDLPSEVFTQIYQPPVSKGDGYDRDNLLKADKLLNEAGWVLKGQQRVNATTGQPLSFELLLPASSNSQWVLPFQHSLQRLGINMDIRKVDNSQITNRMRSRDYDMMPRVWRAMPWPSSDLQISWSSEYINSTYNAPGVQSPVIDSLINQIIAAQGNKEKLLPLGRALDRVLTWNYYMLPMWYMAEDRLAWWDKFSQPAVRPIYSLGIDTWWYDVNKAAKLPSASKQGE

[2] = target: T1, YejA, periplasmic solute-binding …; assay: as above; details: both partners purified; remark: listed apart in the source

B1: LGEPRYAFN (peptide)
peptide: LGEPRYAFN
notes: YejA, E. coli, stretch of the N-terminal segment; numbers count on: the mature protein; source: synthetic peptide
[1]
  melting temp. change with 1.25 mg ml^-1 (1.17 mM) peptide: 17 °C

B2: VLGEPRYAFNFN (peptide)
peptide: VLGEPRYAFNFN
notes: YejA, E. coli, stretch of the N-terminal segment; numbers count on: the mature protein; also called dodecapeptide; 12-mer; source: co-purified with recombinant YejA (self-derived); synthetic peptide
[1]
  melting temp. change with 2.5 mg ml^-1 (1.75 mM) peptide: 21 °C

B3: LGEPRYAFNFN (peptide)
peptide: LGEPRYAFNFN
notes: YejA, E. coli, residues 12-22 of the N-terminal segment; numbers count on: the mature protein; also called undecapeptide; 11-mer; source: co-purified and co-crystallised with recombinant YejA (self-derived); synthetic peptide
[2]
  Tm of YejA with 0.005 mg ml^-1 peptide (60.8 °C without peptide): 62.6 °C
  Tm of YejA with 0.05 mg ml^-1 peptide (60.8 °C without peptide): 67.5 °C
[1]
  melting temp. change with 0.75 mg ml^-1 (0.56 mM) peptide: 13 °C

B4: LGEPAYAFNFN (peptide)
peptide: LGEPAYAFNFN
notes: numbers count on: the peptide (Leu1 = residue 12 of mature YejA); source: synthetic peptide
[1]
  melting temp. change with 2.5 mg ml^-1 (2.01 mM) peptide: 7 °C

B5: LGEPRWAFNFN (peptide)
peptide: LGEPRWAFNFN
notes: numbers count on: the peptide (Leu1 = residue 12 of mature YejA); also called Trp-containing peptide; Trp6 containing peptide; source: synthetic peptide
[1]
  melting temp. change with 2.5 mg ml^-1 (1.85 mM) peptide: 22 °C

B6: LGEPRYAFNF (peptide)
peptide: LGEPRYAFNF
notes: as for B1
[1]
  melting temp. change with 2.5 mg ml^-1 (2.06 mM) peptide: 20 °C

B7: FAVLGEPRYAFN (peptide)
peptide: FAVLGEPRYAFN
notes: YejA, E. coli, stretch of the N-terminal segment; numbers count on: the mature protein; source: co-purified with recombinant YejA (self-derived); synthetic peptide
[1]
  melting temp. change with 5 mg ml^-1 (3.61 mM) peptide: 19 °C

B8: VLGEPRYAFNFNHFD (peptide)
peptide: VLGEPRYAFNFNHFD
notes: YejA, E. coli, stretch of the N-terminal segment; numbers count on: the mature protein; also called 15-mer; source: co-purified with recombinant YejA (self-derived); synthetic peptide
[1]
  melting temp. change with 2.5 mg ml^-1 (1.37 mM) peptide: 26 °C

B9: EPRYAFNFN (peptide)
peptide: EPRYAFNFN
notes: as for B1
[1]
  melting temp. change with 2.5 mg ml^-1 (2.16 mM) peptide: 8 °C

B10: VLGEPRYAFNF (peptide)
peptide: VLGEPRYAFNF
notes: as for B7
[1]
  melting temp. change with 2.5 mg ml^-1 (1.9 mM) peptide: 22 °C

B11: GEPRYAFNFN (peptide)
peptide: GEPRYAFNFN
notes: as for B1
[1]
  melting temp. change with 2.5 mg ml^-1 (2.06 mM) peptide: 14 °C
